How the values were obtained:
[1] = target: ReoM-His (L. monocytogenes) (UniProt P60357); test: pull-down + cross-linking; L. monocytogenes ΔclpC strains making ReoM-His were cross-linked in vivo with formaldehyde; ReoM-His purified on MagneHis magnetic beads, decrosslinked by heat; MurA in the eluates detected by Western blot and quantified by densitometry
[2] = target: MurA S262L-Strep (L. monocytogenes) (UniProt Q8Y4C4); test: SPR
[3] = target: MurA N197D-Strep (L. monocytogenes) (UniProt Q8Y4C4); test: SPR
[4] = target: MurA-Strep (L. monocytogenes) (UniProt Q8Y4C4); test: SPR

Sequence of UniProt P60357 (P60357 whole entry): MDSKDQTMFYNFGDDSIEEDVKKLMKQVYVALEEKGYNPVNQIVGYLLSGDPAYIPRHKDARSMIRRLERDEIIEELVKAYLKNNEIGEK

Substance	percent of wt MurA level copurified [1]	Kd [2]	Kd [3]	Kd [4]	koff [4]	kon [4]
MurA N197D (chromosomal allele, strain LMPR14) (from UniProt Q8Y4C4 1-430) (enzyme)	13%					
MurA S262L (chromosomal allele, strain LMPR13) (from UniProt Q8Y4C4 1-430) (enzyme)	19%					
recombinant ReoM (from UniProt P60357 1-90) (natural protein)		800 nM	700 nM	900 nM	0.0004 s⁻¹	500 M⁻¹ s⁻¹
